Results taken from article PMC2776932 (The Febs Journal, 2009).

Target: T1, GFP-tagged Lsm188p (Lsm8p with the N-terminal domain of Lsm1p) (S. cerevisiae, UniProt P47017 1-51; P47093 11-109)
T1 chain (looked up): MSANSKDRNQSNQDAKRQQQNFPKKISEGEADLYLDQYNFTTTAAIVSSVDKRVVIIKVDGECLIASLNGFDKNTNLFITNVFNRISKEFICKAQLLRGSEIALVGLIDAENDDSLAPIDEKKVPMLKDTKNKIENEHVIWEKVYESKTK
Assay: co-IP

reduction of co-precipitated Lsm7p against wild-type: > 50 % reduction
B1: Lsm7–Myc (genomically encoded Lsm7p with 13myc tag) (natural protein, S. cerevisiae, UniProt P53905 1-115, looked up)
chain: MHQQHSKSENKPQQQRKKFEGPKREAILDLAKYKDSKIRVKLMGGKLVIGVLKGYDQLMNLVLDDTVEYMSNPDDENNTELISKNARKLGLTVIRGTILVSLSSAEGSDVLYMQK
